Experimental data: paper PMC11574045, “A cofactor-induced repressive type of transcription factor condensation can be induced by synthetic peptides to suppress tumorigenesis” (The EMBO Journal, 2024)

B1: TAF1C (protein, UniProt Q15572 1-869, looked up)
TATA box-binding …: MDFPSSLRPALFLTGPLGLSDVPDLSFMCSWRDALTLPEAQPQNSENGALHVTKDLLWEPATPGPLPMLPPLIDPWDPGLTARDLLFRGGCRYRKRPRVVLDVTEQISRFLLDHGDVAFAPLGKLMLENFKLEGAGSRTKKKTVVSVKKLLQDLGGHQPWGCPWAYLSNRQRRFSILGGPILGTSVASHLAELLHEELVLRWEQLLLDEACTGGALAWVPGRTPQFGQLVYPAGGAQDRLHFQEVVLTPGDNPQFLGKPGRIQLQGPVRQVVTCTVQGESKALIYTFLPHWLTCYLTPGPFHPSSALLAVRSDYHCAVWKFGKQWQPTLLQAMQVEKGATGISLSPHLPGELAICSRSGAVCLWSPEDGLRQIYRDPETLVFRDSSSWRWADFTAHPRVLTVGDRTGVKMLDTQGPPGCGLLLFRLGAEASCQKGERVLLTQYLGHSSPKCLPPTLHLVCTQFSLYLVDERLPLVPMLKWNHGLPSPLLLARLLPPPRPSCVQPLLLGGQGGQLQLLHLAGEGASVPRLAGPPQSLPSRIDSLPAFPLLEPKIQWRLQERLKAPTIGLAAVVPPLPSAPTPGLVLFQLSAAGDVFYQQLRPQVDSSLRRDAGPPGDTQPDCHAPTASWTSQDTAGCSQWLKALLKVPLAPPVWTAPTFTHRQMLGSTELRREEEEGQRLGVLRKAMARGQLLLQRDLGSLPAAEPPPAPESGLEDKLSERLGEAWAGRGAAWWERQQGRTSEPGRQTRRPKRRTQLSSSFSLSGHVDPSEDTSSPHSPEWPPADALPLPPTTPPSQELTPDACAQGVPSEQRQMLRDYMAKLPPQRDTPGCATTPPHSQASSVRATRSQQHTPVLSSSQPLRKKPRMGF
B2: STAT5A (protein, UniProt P42229 1-794, looked up)
Signal transducer and …: MAGWIQAQQLQGDALRQMQVLYGQHFPIEVRHYLAQWIESQPWDAIDLDNPQDRAQATQLLEGLVQELQKKAEHQVGEDGFLLKIKLGHYATQLQKTYDRCPLELVRCIRHILYNEQRLVREANNCSSPAGILVDAMSQKHLQINQTFEELRLVTQDTENELKKLQQTQEYFIIQYQESLRIQAQFAQLAQLSPQERLSRETALQQKQVSLEAWLQREAQTLQQYRVELAEKHQKTLQLLRKQQTIILDDELIQWKRRQQLAGNGGPPEGSLDVLQSWCEKLAEIIWQNRQQIRRAEHLCQQLPIPGPVEEMLAEVNATITDIISALVTSTFIIEKQPPQVLKTQTKFAATVRLLVGGKLNVHMNPPQVKATIISEQQAKSLLKNENTRNECSGEILNNCCVMEYHQATGTLSAHFRNMSLKRIKRADRRGAESVTEEKFTVLFESQFSVGSNELVFQVKTLSLPVVVIVHGSQDHNATATVLWDNAFAEPGRVPFAVPDKVLWPQLCEALNMKFKAEVQSNRGLTKENLVFLAQKLFNNSSSHLEDYSGLSVSWSQFNRENLPGWNYTFWQWFDGVMEVLKKHHKPHWNDGAILGFVNKQQAHDLLINKPDGTFLLRFSDSEIGGITIAWKFDSPERNLWNLKPFTTRDFSIRSLADRLGDLSYLIYVFPDRPKDEVFSKYYTPVLAKAVDGYVKPQIKQVVPEFVNASADAGGSSATYMDQAPSPAVCPQAPYNMYPQNPDHVLDQDGEFDLDETMDVARHVEELLRRPMDSLDSRLSPPAGLFTSARGSLS
B3: SUV39H1 (protein, UniProt O43463 1-412, looked up)
Histone-lysine …: MAENLKGCSVCCKSSWNQLQDLCRLAKLSCPALGISKRNLYDFEVEYLCDYKKIREQEYYLVKWRGYPDSESTWEPRQNLKCVRILKQFHKDLERELLRRHHRSKTPRHLDPSLANYLVQKAKQRRALRRWEQELNAKRSHLGRITVENEVDLDGPPRAFVYINEYRVGEGITLNQVAVGCECQDCLWAPTGGCCPGASLHKFAYNDQGQVRLRAGLPIYECNSRCRCGYDCPNRVVQKGIRYDLCIFRTDDGRGWGVRTLEKIRKNSFVMEYVGEIITSEEAERRGQIYDRQGATYLFDLDYVEDVYTVDAAYYGNISHFVNHSCDPNLQVYNVFIDNLDERLPRIAFFATRTIRAGEELTFDYNMQVDPVDMESTRMDSNFGLAGLPGSPKKRVRIECKCGTESCRKYLF
B4: TADA3L (protein, UniProt O75528 1-432, looked up)
Transcriptional adapter 3: MSELKDCPLQFHDFKSVDHLKVCPRYTAVLARSEDDGIGIEELDTLQLELETLLSSASRRLRVLEAETQILTDWQDKKGDRRFLKLGRDHELGAPPKHGKPKKQKLEGKAGHGPGPGPGRPKSKNLQPKIQEYEFTDDPIDVPRIPKNDAPNRFWASVEPYCADITSEEVRTLEELLKPPEDEAEHYKIPPLGKHYSQRWAQEDLLEEQKDGARAAAVADKKKGLMGPLTELDTKDVDALLKKSEAQHEQPEDGCPFGALTQRLLQALVEENIISPMEDSPIPDMSGKESGADGASTSPRNQNKPFSVPHTKSLESRIKEELIAQGLLESEDRPAEDSEDEVLAELRKRQAELKALSAHNRTKKHDLLRLAKEEVSRQELRQRVRMADNEVMDAFRKIMAARQKKRTPTKKEKDQAWKTLKERESILKLLDG
B5: BHLHE41 (protein, UniProt Q9C0J9 1-482, looked up)
Class E basic …: MDEGIPHLQERQLLEHRDFIGLDYSSLYMCKPKRSMKRDDTKDTYKLPHRLIEKKRRDRINECIAQLKDLLPEHLKLTTLGHLEKAVVLELTLKHLKALTALTEQQHQKIIALQNGERSLKSPIQSDLDAFHSGFQTCAKEVLQYLSRFESWTPREPRCVQLINHLHAVATQFLPTPQLLTQQVPLSKGTGAPSAAGSAAAPCLERAGQKLEPLAYCVPVIQRTQPSAELAAENDTDTDSGYGGEAEARPDREKGKGAGASRVTIKQEPPGEDSPAPKRMKLDSRGGGSGGGPGGGAAAAAAALLGPDPAAAAALLRPDAALLSSLVAFGGGGGAPFPQPAAAAAPFCLPFCFLSPSAAAAYVQPFLDKSGLEKYLYPAAAAAPFPLLYPGIPAPAAAAAAAAAAAAAAAAFPCLSSVLSPPPEKAGAAAATLLPHEVAPLGAPHPQHPHGRTHLPFAGPREPGNPESSAQEDPSQPGKEAP
B6: BIF1 (protein, UniProt Q9Y371 1-365, looked up)
Endophilin-B1: MNIMDFNVKKLAADAGTFLSRAVQFTEEKLGQAEKTELDAHLENLLSKAECTKIWTEKIMKQTEVLLQPNPNARIEEFVYEKLDRKAPSRINNPELLGQYMIDAGTEFGPGTAYGNALIKCGETQKRIGTADRELIQTSALNFLTPLRNFIEGDYKTIAKERKLLQNKRLDLDAAKTRLKKAKAAETRNSSEQELRITQSEFDRQAEITRLLLEGISSTHAHHLRCLNDFVEAQMTYYAQCYQYMLDLQKQLGSFPSNYLSNNNQTSVTPVPSVLPNAIGSSAMASTSGLVITSPSNLSDLKECSGSRKARVLYDYDAANSTELSLLADEVITVFSVVGMDSDWLMGERGNQKGKVPITYLELLN
B7: TAF9 (protein, UniProt Q8VI33 1-264, looked up)
Transcription initiation …: MESGKMASPKSMPKDAQMMAQILKDMGITEYEPRVINQMLEFAFRYVTTILDDAKIYSSHAKKATVDADDVRLAIQCRADQSFTSPPPRDFLLDIARQRNQTPLPLIKPYSGPRLPPDRYCLTAPNYRLKSLQKKAPAPAGRITVPRLSVGSVSSRPSTPTLGTPTPQTMSVSTKVGTPMSLTGQRFTVQMPASQSPAVKASIPATSTVQNVLINPSLIGSKNILITTNMVSQNTAESANALKRKREDDDDDDDDDDDDDYDNM
B8: TADA2B (protein, UniProt Q86TJ2 1-420, looked up)
Transcriptional adapter 2-beta: MAELGKKYCVYCLAEVSPLRFRCTECQDIELCPECFSAGAEIGHHRRYHGYQLVDGGRFTLWGPEAEGGWTSREEQLLLDAIEQFGFGNWEDMAAHVGASRTPQEVMEHYVSMYIHGNLGKACIPDTIPNRVTDHTCPSGGPLSPSLTTPLPPLDISVAEQQQLGYMPLRDDYEIEYDQDAETLISGLSVNYDDDDVEIELKRAHVDMYVRKLKERQRRKNIARDYNLVPAFLGKDKKEKEKALKRKITKEEKELRLKLRPLYQFMSCKEFDDLFENMHKEKMLRAKIRELQRYRRNGITKMEESAEYEAARHKREKRKENKNLAGSKRGKEDGKDSEFAAIENLPGFELLSDREKVLCSSLNLSPARYVTVKTIIIKDHLQKRQGIPSKSRLPSYLDKVLKKRILNFLTESGWISRDAS
B9: STAT5B (protein, UniProt P51692 1-787, looked up)
Signal transducer and …: MAVWIQAQQLQGEALHQMQALYGQHFPIEVRHYLSQWIESQAWDSVDLDNPQENIKATQLLEGLVQELQKKAEHQVGEDGFLLKIKLGHYATQLQNTYDRCPMELVRCIRHILYNEQRLVREANNGSSPAGSLADAMSQKHLQINQTFEELRLVTQDTENELKKLQQTQEYFIIQYQESLRIQAQFGPLAQLSPQERLSRETALQQKQVSLEAWLQREAQTLQQYRVELAEKHQKTLQLLRKQQTIILDDELIQWKRRQQLAGNGGPPEGSLDVLQSWCEKLAEIIWQNRQQIRRAEHLCQQLPIPGPVEEMLAEVNATITDIISALVTSTFIIEKQPPQVLKTQTKFAATVRLLVGGKLNVHMNPPQVKATIISEQQAKSLLKNENTRNDYSGEILNNCCVMEYHQATGTLSAHFRNMSLKRIKRSDRRGAESVTEEKFTILFESQFSVGGNELVFQVKTLSLPVVVIVHGSQDNNATATVLWDNAFAEPGRVPFAVPDKVLWPQLCEALNMKFKAEVQSNRGLTKENLVFLAQKLFNNSSSHLEDYSGLSVSWSQFNRENLPGRNYTFWQWFDGVMEVLKKHLKPHWNDGAILGFVNKQQAHDLLINKPDGTFLLRFSDSEIGGITIAWKFDSQERMFWNLMPFTTRDFSIRSLADRLGDLNYLIYVFPDRPKDEVYSKYYTPVPCESATAKAVDGYVKPQIKQVVPEFVNASADAGGGSATYMDQAPSPAVCPQAHYNMYPQNPDSVLDTDGDFDLEDTMDVARRVEELLGRPMDSQWIPHAQS
B10: TADA2L (protein, UniProt O75478 1-443, looked up)
Transcriptional adapter …: MDRLGPFSNDPSDKPPCRGCSSYLMEPYIKCAECGPPPFFLCLQCFTRGFEYKKHQSDHTYEIMTSDFPVLDPSWTAQEEMALLEAVMDCGFGNWQDVANQMCTKTKEECEKHYMKHFINNPLFASTLLNLKQAEEAKTADTAIPFHSTDDPPRPTFDSLLSRDMAGYMPARADFIEEFDNYAEWDLRDIDFVEDDSDILHALKMAVVDIYHSRLKERQRRKKIIRDHGLINLRKFQLMERRYPKEVQDLYETMRRFARIVGPVEHDKFIESHALEFELRREIKRLQEYRTAGITNFCSARTYDHLKKTREEERLKRTMLSEVLQYIQDSSACQQWLRRQADIDSGLSPSIPMASNSGRRSAPPLNLTGLPGTEKLNEKEKELCQMVRLVPGAYLEYKSALLNECNKQGGLRLAQARALIKIDVNKTRKIYDFLIREGYITKG

system: HEK293FT cells transfected with TF library; test: Screening of TF condensates based on fluorescent puncta; assay type: cell-based; settings: Figure 1B numerical data; TF library screen, one value per transcriptional factor
Outline: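 Puncta scoring used automated confocal imaging of fifty random fields per well, after anti-Flag or anti-GAL4 immunofluorescence (Alexa 488) in PFA-fixed cells. HEK293FT cells carried TF library plasmids delivered with PEI (1.6 μg/ml DNA). At 60 h they were switched for 12 h to glucose-containing or glucose-free medium.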

First: B1
Second: B2
The “Z score of condensed fraction” value of the first is higher: 0.1895 for the first, -0.6398 for the second.

First: B3
Second: B4
The “Z score of condensed fraction” value of the first is lower: -0.8281 for the first, 1.084 for the second.

First: B5
Second: B6
The “Z score of condensed fraction” value of the first is lower: -0.9569 for the first, -0.08025 for the second.

Compared with B7, B8 is higher in “Z score of condensed fraction” value: -0.7072 for the first, -0.4021 for the second.

Going from B9 to B10, the “Z score of condensed fraction” value rises from 2.437 to 2.809.
